The text below walks through data of the supplement of paper PMC10724198.

± gives the standard deviation of the averaged measurements.
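Further: PSI is a weighted mean of sequencing reads over stability bins, variants kept only with over 10 reads, mCherry proximal and sfGFP distal, peptide attached via GGGS linker.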

This data set has as its system Saccharomyces cerevisiae. The data set can be described thus: protein stability index of tFT-peptide fusion (C-terminal peptide) (PSI (0-1 scale)); higher = more stable (slower turnover). The following applies: genetic background: wild type; temperature: 30 C.
Take LGGLRRGSGREG: the protein stability index amounted to 0.678 ± 0.015.

LGGLYGTAMSCT came in with a protein stability index of 0.683 ± 0.023.

For the sequence LGGRWVLGVRGV, the protein stability index amounted to 0.694 ± 0.029.

For LGGSNRPCVRSI, the protein stability index was 0.697 ± 0.011.

LGGSVAIWSWNP had a protein stability index of 0.763 ± 0.12.

In turn, LGGWAGLRCGGF showed a protein stability index of 0.704 ± 0.026.

Sequence LGILVFRGASFL displayed a protein stability index of 0.7351 ± 0.007.

Sequence LGLCQVLFSFRV showed a protein stability index of 0.56816 ± 0.00044.

For the sequence LGLEALRETSQP, the protein stability index worked out at 0.6448 ± 0.005.

LGLSDPERLFVI: the protein stability index is 0.664 ± 0.025.

Turning to LGMEPPWIYSCQ, the protein stability index is 0.6851 ± 0.0019.

The sequence LGRGGGGPLSGG came in with a protein stability index of 0.717 ± 0.041.

On to LGRLFPTSLPPR, for which the protein stability index is 0.739 ± 0.17.

For the sequence LGRLGAFITQPA, the protein stability index was determined as 0.671 ± 0.059.

The sequence LGRMCSRITVGV showed a protein stability index of 0.543 ± 0.026.

LGRPLLYALFFP had a protein stability index of 0.724 ± 0.048.

In turn, LGRRGLSMCGCV displayed a protein stability index of 0.634 ± 0.018.

Sequence LGRVLSFGHAFV yielded a protein stability index of 0.698 ± 0.021.

LGSASRQLARPR showed a protein stability index of 0.66 ± 0.12.

In turn, LGSVVADGPHKL came in with a protein stability index of 0.625 ± 0.0097.

For the sequence LGVAMSKCLEFR, the protein stability index was determined as 0.684 ± 0.0083.

Turning to LGVFVAFGGFGV, the protein stability index came to 0.605 ± 0.048.

The sequence LGVGGRGVVPGA yielded a protein stability index of 0.7 ± 0.031.

Consider LGWGWVWSWGRG, for which the protein stability index amounted to 0.728 ± 0.052.

For the sequence LHISYPVPPLRM, the protein stability index was 0.633 ± 0.11.

For LHNQTLLLSEDD, the protein stability index was 0.652 ± 0.037.

LIALLETRTWRT: the protein stability index worked out at 0.676 ± 0.015.

Take LIAVASSGWKQS: the protein stability index is 0.7145 ± 0.0023.

In turn, LICQNPVADPRT displayed a protein stability index of 0.711 ± 0.042.

Take LIFKLQLPSPWL: the protein stability index was 0.643 ± 0.042.

LIHGRFWVIRVD came in with a protein stability index of 0.616 ± 0.0092.

As for LIKSEECKNTDI, the protein stability index turned out to be 0.704 ± 0.033.

For LILLLTPPVIHH, the protein stability index was 0.743 ± 0.051.

With LIRLLPPPPAVF, the protein stability index was 0.487 ± 0.068.

The sequence LISHHSEFPVIL came in with a protein stability index of 0.744 ± 0.031.

LISNIFSFEWLW came in with a protein stability index of 0.622 ± 0.032.

LKDITVWRPKRG yielded a protein stability index of 0.658 ± 0.12.

In turn, LKHHDSNESASR returned a protein stability index of 0.651 ± 0.1.

Sequence LKKMIGPLRAGE returned a protein stability index of 0.686 ± 0.076.

In turn, LKLHDSNESASR had a protein stability index of 0.651 ± 0.03.

For LKLTFFCRQNIF, the protein stability index amounted to 0.574 ± 0.0098.

Regarding LKNIRYGIIKKE, the protein stability index was 0.68 ± 0.0085.

Regarding LKRKKKHQMKRR, the protein stability index worked out at 0.699 ± 0.028.

For LKSGRYSYFGSL, the protein stability index was found to be 0.734 ± 0.086.

LLAAVSPSHRAL registered a protein stability index of 0.724 ± 0.021.

In turn, LLAPSPPPPLPP displayed a protein stability index of 0.61 ± 0.13.

For the sequence LLAYFCRRGVRH, the protein stability index was 0.7232 ± 0.0071.

Consider LLCSLRPLAVPP, for which the protein stability index was found to be 0.602 ± 0.039.

LLDLCSNLLRSF gave a protein stability index of 0.757 ± 0.11.

With LLEKGHTRGLCF, the protein stability index came to 0.663 ± 0.017.

In the case of LLFCMGSCGPVR, the protein stability index amounted to 0.624 ± 0.027.

LLFVVSLPSFPC: the protein stability index is 0.636 ± 0.13.

Sequence LLGFRLACTSGA had a protein stability index of 0.648 ± 0.0079.

LLGRWVAGSRGG had a protein stability index of 0.746 ± 0.017.

As to LLHAGVCSVSFL, the protein stability index came out at 0.718 ± 0.038.

With LLLPPAPPPPLS, the protein stability index came to 0.621 ± 0.095.

Take LLLVGGVSSWTV: the protein stability index came to 0.67 ± 0.014.

Take LLLVRNCQDSRQ: the protein stability index came to 0.69 ± 0.057.

In turn, LLPFLPPPPCPP yielded a protein stability index of 0.72 ± 0.022.

Take LLPFTLHIPLRP: the protein stability index is 0.6523 ± 0.0022.

LLPGLVGMLSCM had a protein stability index of 0.602 ± 0.039.

Consider LLPGPYPLLSDN, for which the protein stability index was found to be 0.732 ± 0.025.

Turning to LLPLAPVCVIIL, the protein stability index is 0.54 ± 0.041.

The sequence LLPLPCPPFPHS returned a protein stability index of 0.674 ± 0.024.

As for LLPPPHHANHTA, the protein stability index worked out at 0.6915 ± 0.0027.

As to LLPRLRHPSRGK, the protein stability index came to 0.73 ± 0.15.

In the case of LLPSPISRNRAL, the protein stability index came to 0.696 ± 0.0081.

Turning to LLPSPLHGCTMS, the protein stability index worked out at 0.676 ± 0.01.

LLPSPPPPTSLP returned a protein stability index of 0.728 ± 0.033.

For LLPVLGFPLPFD, the protein stability index came out at 0.75 ± 0.065.

For LLRVLPPPPLPL, the protein stability index was 0.712 ± 0.11.

As to LLRVTVCELAYK, the protein stability index came out at 0.55 ± 0.018.

LLSFLPPVFLLL yielded a protein stability index of 0.514 ± 0.014.

In the case of LLSGPTLSCVPT, the protein stability index is 0.617 ± 0.043.

LLSLHPRYPCTP gave a protein stability index of 0.76 ± 0.047.

In turn, LLSLLPFGCLLL showed a protein stability index of 0.536 ± 0.031.

Consider LLSRLLLAPSSL, for which the protein stability index was determined as 0.65 ± 0.019.

In turn, LLSSATPSKFPS yielded a protein stability index of 0.836 ± 0.021.

LLSTPPIVSPPA showed a protein stability index of 0.6987 ± 0.0031.

LLSVPCPLVCRL displayed a protein stability index of 0.699 ± 0.037.
